Test results published in publication PMC12264004, “Super-resolution imaging of native fluorescent photoreceptors in chytrid fungal eyes” (The EMBO Journal, 2025).

Experiments:
[1] = tested on: T1, CaRGC (homodimeric, full-length); assay: cGMP by reverse-phase HPLC, Hill fit, crude membranes; type: biochemical, Catenaria anguillulae; details: light-triggered; 10 mM MgCl2; HEPES pH 7.4
T1 construct: homodimer; crude membrane fraction (HEK293T); gene as used in Scheib et al 2018

[2] = substrate: Nc1nc2c(ncn2[C@@H]2O[C@H](COP(=O)(O)OP(=O)(O)OP(=O)(O)O)[C@@H](O)[C@H]2O)c(=O)[nH]1; assay: cGMP by reverse-phase HPLC, Hill fit; type: biochemical, Rhizoclosmatium globosum; details: GTP:MnCl2 1:2

Molecule	Km ([2]; equimolar mixture)	further results
Nc1nc2c(ncn2[C@@H]2O[C@H](COP(=O)(O)OP(=O)(O)OP(=O)(O)O)[C@@H](O)[C@H]2O)c(=O)[nH]1 [GTP]		Km [1]: 470 ± 50 µM
RGC2-cat/NeoR-cat (Rhizoclosmatium globosum) (protein, equimolar mixture of purified C-terminally His-tagged catalytic domains (E. coli); heterodimer) chain 1: ATGSEEYSSVTVFFSDVTNFHALSNKNSTKEMLATLNKLWIEYDVICKRWGVYKVETIGDAFLGVVGAPERVPDHAERAANFAVDVISMVQDFRTDKGEELITRVGLNSGPITAGILGDSNPHWCIVGDAVNTASRMESTSKPMRIHISENTYKLIKNKGFRLEGPDVMNIKGKGTMNTYWINGRS chain 2: TGAEEYSCVTVFFSDIANFTPLSQRTSTKDMLASLNNMWIEYDKISKKWGMYKVETIGDAFLGVVGAPDRVPDHAERAAEFSIDIIDMIKDFRLVTGEPIQIRAGLNSGPVTAGILGESNPHWCIVGDTVTIASKMEATSKHMKIHIAESTFNLIKSSGKFRTSDSEPVTIKGNVINTFFIEGRA	980 µM	
RGC1-cat (Rhizoclosmatium globosum) (protein, soluble catalytic domain aa 365-551, C-terminal His-tag, E. coli ArcticExpress (DE3), 24,997 g/mol, homodimer) NGAEEYASVTVFFSDITNFVALSGKSSTKDMLATLNKLWVEYDVICKRWGVYKVETIGDAFLGVVGAPDRIPDHAERAANFAIDVIRMVQDFRTVNDEEIVTRIGLNSGPITAGILGDSNPHWCIVGDAVNTASRMESTSKPMRIHISENTYKLINGKGFKLEGPDVMNIKGKGTMNTYWINGRG		Km [2]: 5530 µM
RGC1-cat/NeoR-cat (Rhizoclosmatium globosum) (protein, equimolar mixture of purified C-terminally His-tagged catalytic domains (E. coli); heterodimer, some RGC1-cat homodimer remains) chain 1: NGAEEYASVTVFFSDITNFVALSGKSSTKDMLATLNKLWVEYDVICKRWGVYKVETIGDAFLGVVGAPDRIPDHAERAANFAIDVIRMVQDFRTVNDEEIVTRIGLNSGPITAGILGDSNPHWCIVGDAVNTASRMESTSKPMRIHISENTYKLINGKGFKLEGPDVMNIKGKGTMNTYWINGRG chain 2: TGAEEYSCVTVFFSDIANFTPLSQRTSTKDMLASLNNMWIEYDKISKKWGMYKVETIGDAFLGVVGAPDRVPDHAERAAEFSIDIIDMIKDFRLVTGEPIQIRAGLNSGPVTAGILGESNPHWCIVGDTVTIASKMEATSKHMKIHIAESTFNLIKSSGKFRTSDSEPVTIKGNVINTFFIEGRA	1540 µM	
